From publication PMC7017226

Tests used:
[1] = target: Stromal interacting molecule 2 (STIM2) (rat (endogenous in primary cortical neurons)); assay: proximity ligation; Duolink in situ PLA on fixed 17-day-old rat cortical neurons; rabbit anti-STIM1 or anti-STIM2 with mouse anti-NR2A or anti-NR2B; cells treated 10 min with 2 mM CaCl2 (control) or 2 uM TG in 0.5 mM EGTA; PLA signals per cell counted in ImageJ
[2] = target: Stromal interacting molecule 1 (STIM1) (rat (endogenous in primary cortical neurons)) (UniProt P84903); assay: as above
Stromal interacting molecule 1 (STIM1) (rat (endogenous in primary cortical neurons)), sequence (P84903 23-685): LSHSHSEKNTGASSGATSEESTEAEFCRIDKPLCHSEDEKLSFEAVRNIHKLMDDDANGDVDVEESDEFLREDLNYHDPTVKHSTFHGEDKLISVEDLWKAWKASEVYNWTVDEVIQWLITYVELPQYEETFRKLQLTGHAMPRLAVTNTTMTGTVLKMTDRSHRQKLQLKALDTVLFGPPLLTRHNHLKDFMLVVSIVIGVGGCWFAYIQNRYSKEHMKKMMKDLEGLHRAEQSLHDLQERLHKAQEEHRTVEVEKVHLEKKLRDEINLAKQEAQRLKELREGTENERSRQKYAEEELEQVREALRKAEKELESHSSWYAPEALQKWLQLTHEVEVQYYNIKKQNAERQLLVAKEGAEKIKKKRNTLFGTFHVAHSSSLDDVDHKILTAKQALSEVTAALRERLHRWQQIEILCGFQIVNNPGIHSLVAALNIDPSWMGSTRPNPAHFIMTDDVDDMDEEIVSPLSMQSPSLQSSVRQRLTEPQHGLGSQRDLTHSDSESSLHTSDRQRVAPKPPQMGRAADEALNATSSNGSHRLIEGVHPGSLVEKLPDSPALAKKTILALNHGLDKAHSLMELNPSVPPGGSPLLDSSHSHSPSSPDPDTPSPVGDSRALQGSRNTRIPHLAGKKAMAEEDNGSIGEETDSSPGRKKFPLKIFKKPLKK

NMDA receptor subunit NR2A, sequence (Q00959 23-1464): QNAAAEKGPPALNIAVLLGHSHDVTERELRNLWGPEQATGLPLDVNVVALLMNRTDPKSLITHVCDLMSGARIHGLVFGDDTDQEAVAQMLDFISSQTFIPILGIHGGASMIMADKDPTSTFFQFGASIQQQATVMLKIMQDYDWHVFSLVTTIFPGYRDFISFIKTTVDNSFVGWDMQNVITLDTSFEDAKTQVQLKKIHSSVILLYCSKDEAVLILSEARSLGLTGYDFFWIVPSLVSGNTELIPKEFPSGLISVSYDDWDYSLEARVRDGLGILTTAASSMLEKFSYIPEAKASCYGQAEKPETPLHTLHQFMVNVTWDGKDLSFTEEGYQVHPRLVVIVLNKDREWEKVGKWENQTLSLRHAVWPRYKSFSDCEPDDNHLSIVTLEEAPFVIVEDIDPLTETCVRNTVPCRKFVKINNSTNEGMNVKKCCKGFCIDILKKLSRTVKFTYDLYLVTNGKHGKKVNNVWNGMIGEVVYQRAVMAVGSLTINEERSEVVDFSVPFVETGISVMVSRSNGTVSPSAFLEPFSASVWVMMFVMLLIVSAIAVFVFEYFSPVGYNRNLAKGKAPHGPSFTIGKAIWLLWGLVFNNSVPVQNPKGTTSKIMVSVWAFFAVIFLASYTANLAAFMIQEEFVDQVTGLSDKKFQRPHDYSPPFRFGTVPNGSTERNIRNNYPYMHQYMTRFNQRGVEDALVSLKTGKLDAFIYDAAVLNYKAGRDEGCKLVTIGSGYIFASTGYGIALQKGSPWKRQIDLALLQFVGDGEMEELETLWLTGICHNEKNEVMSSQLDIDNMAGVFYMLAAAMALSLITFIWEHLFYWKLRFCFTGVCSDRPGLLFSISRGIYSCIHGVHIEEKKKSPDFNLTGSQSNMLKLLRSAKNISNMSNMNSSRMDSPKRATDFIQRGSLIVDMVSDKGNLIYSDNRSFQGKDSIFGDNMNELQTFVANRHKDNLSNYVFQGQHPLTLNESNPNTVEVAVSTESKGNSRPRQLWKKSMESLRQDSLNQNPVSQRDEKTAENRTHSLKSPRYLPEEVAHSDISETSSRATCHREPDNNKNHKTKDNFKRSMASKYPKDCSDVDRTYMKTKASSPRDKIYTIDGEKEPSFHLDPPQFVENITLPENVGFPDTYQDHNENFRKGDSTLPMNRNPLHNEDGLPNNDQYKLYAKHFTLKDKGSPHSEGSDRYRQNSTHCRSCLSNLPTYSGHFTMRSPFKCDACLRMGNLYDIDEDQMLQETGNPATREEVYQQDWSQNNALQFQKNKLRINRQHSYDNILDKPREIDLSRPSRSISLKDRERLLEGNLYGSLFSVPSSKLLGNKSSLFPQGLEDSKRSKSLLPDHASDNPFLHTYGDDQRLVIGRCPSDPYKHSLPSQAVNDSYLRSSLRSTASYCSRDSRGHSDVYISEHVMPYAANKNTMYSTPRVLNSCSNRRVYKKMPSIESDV
NMDA receptor subunit NR2B, Q00960 27-1482 (receptor; other documents disagree on this pair), sequence (Q00960 27-1482): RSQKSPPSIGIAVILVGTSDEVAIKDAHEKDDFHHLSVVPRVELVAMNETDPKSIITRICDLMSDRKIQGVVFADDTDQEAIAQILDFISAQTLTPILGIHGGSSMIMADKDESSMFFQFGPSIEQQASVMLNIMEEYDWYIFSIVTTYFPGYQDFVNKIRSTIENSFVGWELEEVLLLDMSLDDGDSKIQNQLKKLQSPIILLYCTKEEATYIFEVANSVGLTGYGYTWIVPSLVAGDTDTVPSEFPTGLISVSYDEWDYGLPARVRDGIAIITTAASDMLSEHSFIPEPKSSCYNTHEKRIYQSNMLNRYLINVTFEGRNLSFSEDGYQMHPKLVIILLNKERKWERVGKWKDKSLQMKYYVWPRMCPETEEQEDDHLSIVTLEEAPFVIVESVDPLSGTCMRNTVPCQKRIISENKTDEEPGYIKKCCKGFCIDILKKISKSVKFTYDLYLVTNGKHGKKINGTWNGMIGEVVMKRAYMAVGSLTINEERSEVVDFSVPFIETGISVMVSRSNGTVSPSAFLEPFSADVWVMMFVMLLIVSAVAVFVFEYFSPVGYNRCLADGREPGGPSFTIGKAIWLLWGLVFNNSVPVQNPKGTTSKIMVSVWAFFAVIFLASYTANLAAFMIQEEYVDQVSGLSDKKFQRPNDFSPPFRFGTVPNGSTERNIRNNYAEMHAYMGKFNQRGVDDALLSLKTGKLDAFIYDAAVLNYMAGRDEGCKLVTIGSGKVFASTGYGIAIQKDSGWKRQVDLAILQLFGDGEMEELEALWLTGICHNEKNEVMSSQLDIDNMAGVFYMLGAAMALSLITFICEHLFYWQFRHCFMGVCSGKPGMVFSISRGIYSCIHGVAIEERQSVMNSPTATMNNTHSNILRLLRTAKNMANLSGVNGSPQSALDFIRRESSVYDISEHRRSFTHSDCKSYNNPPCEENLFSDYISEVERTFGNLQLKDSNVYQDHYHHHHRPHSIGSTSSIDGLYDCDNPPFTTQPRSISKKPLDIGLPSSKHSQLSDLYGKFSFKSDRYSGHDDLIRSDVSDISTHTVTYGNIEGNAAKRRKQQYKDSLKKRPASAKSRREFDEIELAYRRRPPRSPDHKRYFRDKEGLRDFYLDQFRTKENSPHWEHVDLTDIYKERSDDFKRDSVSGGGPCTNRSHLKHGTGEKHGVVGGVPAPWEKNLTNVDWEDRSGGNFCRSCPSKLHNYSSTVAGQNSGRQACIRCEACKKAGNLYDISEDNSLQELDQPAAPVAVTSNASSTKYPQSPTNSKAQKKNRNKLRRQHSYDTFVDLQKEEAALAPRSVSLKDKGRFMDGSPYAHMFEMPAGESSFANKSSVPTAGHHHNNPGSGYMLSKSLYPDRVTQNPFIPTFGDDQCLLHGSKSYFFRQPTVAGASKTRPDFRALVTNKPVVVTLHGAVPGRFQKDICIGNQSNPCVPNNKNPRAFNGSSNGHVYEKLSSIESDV

Row | Substance | PLA complexes per cell (complexes per cell) [1] | PLA complexes per cell (complexes per cell) [2]
1 | NMDA receptor subunit NR2A (from UniProt Q00959 23-1464) | 3.78 | –
2 | NMDA receptor subunit NR2B, Q00960 27-1482 (receptor; other documents disagree on this pair) | – | 57.2
